Reference: patent US20070065819A1 (Takeda / Millennium, published 2007)
Where no end group is shown, it is not given here. The star is where a group is joined. For = O=C*

T1: human FPRL1 (human, UniProt P25090 1-351)
T1 construct: Expressed in CHO cells (No. 8); also called human-derived FPRL1
T1 sequence: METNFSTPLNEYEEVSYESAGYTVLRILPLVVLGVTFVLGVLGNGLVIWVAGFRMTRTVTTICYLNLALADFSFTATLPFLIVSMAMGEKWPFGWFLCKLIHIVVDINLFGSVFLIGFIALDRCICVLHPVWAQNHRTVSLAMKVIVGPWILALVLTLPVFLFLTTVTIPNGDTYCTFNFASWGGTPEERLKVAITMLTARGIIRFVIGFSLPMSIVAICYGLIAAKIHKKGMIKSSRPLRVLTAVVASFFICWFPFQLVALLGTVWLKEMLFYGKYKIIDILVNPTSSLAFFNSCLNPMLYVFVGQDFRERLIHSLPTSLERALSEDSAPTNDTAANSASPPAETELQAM


Biological target: T1, human FPRL1
Experiment: competitive inhibition of binding of 125I-labeled compound to membrane fraction of human FPRL1-expressing CHO cells, filter trapping
Procedure: Then, by reverse phase HPLC using TSKgel ODS-80TM CTR 4.6 x 100 mm column, a peak of labeled form, which was produced by the reaction, was fractionated. The fraction was mixed with an equal volume of assay buffer (50 mM Tris-HCI/pH7.5, 5 mM EDTA, 0.5 mM PMSF, 20 μg/ml leupeptine, 0.1 μtg/ml pepstatin A, 4 μg/ml E-64 (Peptide Institute), and 0.1% bovine serum albumin) and stored at −30° C. until use.
Human FPRL1-expressing CHO cells (No. 8) were cultivated, collected using PBS containing 5 mM EDTA from culture vessel, and suspended in assay buffer containing no bovine serum albumin, which is described above. Homogenization using Polytron homegenizer (Kinematica) at 18,000 rpm for 40 seconds was performed three times. After centrifugation (1000xg, 4° C., 10 minutes), supernatant was recovered. […]
Competitive inhibition test was carried out under the following conditions. […] After completely drying the filter, Microcinti 0 (Packard) was added to the filter, and a level of labeled form co-trapped with the membrane fraction on the filter was measured using Topcount (Pakard). Non-specific binding level was subtracted from each measured value. Then the ratio of reduced binding level by addition of test sample to the well with notest sample (total binding level), that is, the inhibition rate was calculated. Further, from dosage of test sample-inhibition curve, IC₅₀ was calculated (Table 1).

IC50 [nM]	Binder
1.1	For-MFADRWLFSTNHK (Synthesized at Peptide Institute, Inc; also called human FPRL ligand P3) [human FPRL1 ligand P3 (hfCYOX-1(1-13))]
0.15	For-MFVNRWLYSTNHK (The purified fraction also held a Met(O) oxidant; also called porcine FPRL ligand P3; porcine intrinsic FPRL1 ligand P3) [porcine FPRL1 ligand P3 (pfCYOX-1(1-13))]
